Test results taken from PMC9579148.
pKd: −log10 of the molar value.

How the values were obtained:
[1] = target: recombinant SARS-CoV-2 M^pro (Proteros) (SARS-CoV-2)
[2] = target: recombinant SARS-CoV-2 M^pro (Proteros) (SARS-CoV-2); test: FRET enzymatic inhibition assay

Row | Substance | IC50 of inhibition of M^pro enzymatic activity (FRET substrate cleavage) [1] | pKd [2]
1 | compound 58 (octanoyl-Gly-Phe-His aldehyde) (peptide) | 2.37 µM | 5.92
2 | compound 4 (acetyl-Gly-Phe-His aldehyde, tripeptide derivative of AT1001) | 2.51 µM | 5.90
3 | compound 57 (BOC-Gly-Phe-His aldehyde) (peptide) | 6.49 µM | 5.49
